Our source for the response values is paper PMC5518878.

This test has as its target Rhodopsin. The test is described as follows: Tango assay. The conditions noted are these: read off a plot.

Turning to “human GRK1, full length, fused to the N-terminus of TEV protease (from UniProt Q15835) K46Y”, the response runs as follows: (ATR, parent: est. 0.39) 0.76; (vehicle, parent: est. 0.08) 0.17.
Taken in the same sequence, the figures for “human GRK1, full length, fused to the N-terminus of TEV protease (from UniProt Q15835) K46W” were 0.77 and 0.2.
The like results for “human GRK1, full length, fused to the N-terminus of TEV protease (from UniProt Q15835) K46L” were, in that order, 0.71 and 0.18.
